Like-named read-outs stand apart in the source and are kept apart here. Numbered stars: 1 amine (or outer) side, 2 acyl side, 3 side chain; on linkers, the order of the positions; unused ones are H or OH. Bridge positions count the residues as written; N and C are the ends. Side chains are listed from the residue outwards. Ends that are not written are not given here. * marks the point of attachment. C20 diacid = O=C(O)CCCCCCCCCCCCCCCCCCC(=O)*; γGlu = O=C(O)[C@H](CCC(=O)[*:2])N[*:1]; AEEA = NCCOCCOCC(=O)O
T1: human amylin receptor (amylin 3(a) receptor: human calcitonin receptor plus RAMP-3) (human, UniProt P30988 25-474; O60896 24-148)
T1 construct: whole, on cells; functional assay used the whole cells; also called hAmylin-R; hAmylinR
T1 sequence (looked up) 1: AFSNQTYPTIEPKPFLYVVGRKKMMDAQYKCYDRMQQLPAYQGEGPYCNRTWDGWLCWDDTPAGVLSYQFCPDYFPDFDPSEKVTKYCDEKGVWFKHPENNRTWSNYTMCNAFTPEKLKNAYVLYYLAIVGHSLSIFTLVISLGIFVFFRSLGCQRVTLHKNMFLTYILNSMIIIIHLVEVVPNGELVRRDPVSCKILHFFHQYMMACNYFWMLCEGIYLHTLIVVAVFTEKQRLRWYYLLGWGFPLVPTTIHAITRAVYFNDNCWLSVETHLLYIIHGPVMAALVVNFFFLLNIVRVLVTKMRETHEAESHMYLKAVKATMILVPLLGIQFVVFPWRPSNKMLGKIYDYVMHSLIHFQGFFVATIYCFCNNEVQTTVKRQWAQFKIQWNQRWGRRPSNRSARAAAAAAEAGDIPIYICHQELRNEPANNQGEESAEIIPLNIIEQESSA
T1 sequence (looked up) 2: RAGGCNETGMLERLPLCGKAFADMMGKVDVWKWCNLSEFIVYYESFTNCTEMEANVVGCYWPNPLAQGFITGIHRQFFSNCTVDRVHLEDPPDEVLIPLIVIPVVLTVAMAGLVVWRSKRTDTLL

T2: human calcitonin receptor (human, UniProt P30988 25-474)
T2 sequence (looked up): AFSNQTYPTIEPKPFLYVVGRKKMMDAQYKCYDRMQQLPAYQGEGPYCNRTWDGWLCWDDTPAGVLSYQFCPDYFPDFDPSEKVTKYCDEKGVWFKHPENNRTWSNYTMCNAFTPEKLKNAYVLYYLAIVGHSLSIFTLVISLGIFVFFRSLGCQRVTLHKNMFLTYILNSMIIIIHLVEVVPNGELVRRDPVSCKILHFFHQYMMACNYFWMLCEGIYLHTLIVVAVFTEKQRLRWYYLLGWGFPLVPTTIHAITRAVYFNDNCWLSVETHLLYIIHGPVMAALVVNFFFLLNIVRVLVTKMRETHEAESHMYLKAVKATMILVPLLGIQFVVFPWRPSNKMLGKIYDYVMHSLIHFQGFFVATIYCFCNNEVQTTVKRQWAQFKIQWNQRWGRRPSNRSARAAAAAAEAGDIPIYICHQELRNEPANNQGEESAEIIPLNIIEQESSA

B1: N^ε1-[(4S)-4-carboxy-4-(19-carboxynonadecanoylamino)butanoyl]-[Glu14,Arg17,Pro21,Pro27,His35]-h-amylin (peptide)
peptide: K([γGlu-C20 diacid])CNTATCATQRLAEFLRHSSPNFGAIPSSTNVGSHTY-NH2
modifications: disulfide 2-7; N-terminus assumed
SMILES: CC[C@H](C)[C@H](NC(=O)[C@H](C)NC(=O)CNC(=O)[C@H](Cc1ccccc1)NC(=O)[C@H](CC(N)=O)NC(=O)[C@@H]1CCCN1C(=O)[C@H](CO)NC(=O)[C@H](CO)NC(=O)[C@H](Cc1c[nH]cn1)NC(=O)[C@H](CCCNC(=N)N)NC(=O)[C@H](CC(C)C)NC(=O)[C@H](Cc1ccccc1)NC(=O)[C@H](CCC(=O)O)NC(=O)[C@H](C)NC(=O)[C@H](CC(C)C)NC(=O)[C@H](CCCNC(=N)N)NC(=O)[C@H](CCC(N)=O)NC(=O)[C@@H](NC(=O)[C@H](C)NC(=O)[C@@H]1CSSC[C@H](NC(=O)[C@@H](N)CCCCNC(=O)CC[C@H](NC(=O)CCCCCCCCCCCCCCCCCCC(=O)O)C(=O)O)C(=O)N[C@@H](CC(N)=O)C(=O)N[C@@H]([C@@H](C)O)C(=O)N[C@@H](C)C(=O)N[C@@H]([C@@H](C)O)C(=O)N1)[C@@H](C)O)C(=O)N1CCC[C@H]1C(=O)N[C@@H](CO)C(=O)N[C@@H](CO)C(=O)N[C@H](C(=O)N[C@@H](CC(N)=O)C(=O)N[C@H](C(=O)NCC(=O)N[C@@H](CO)C(=O)N[C@@H](Cc1c[nH]cn1)C(=O)N[C@H](C(=O)N[C@@H](Cc1ccc(O)cc1)C(N)=O)[C@@H](C)O)C(C)C)[C@@H](C)O
B2: N^ε-[(4S)-4-carboxy-4-(19-carboxynonadecanoylamino)butanoyl]Lys[Arg1,Arg17,Pro21,Pro27,His35]-h-amylin (peptide)
peptide: K([γGlu-C20 diacid])RCNTATCATQRLANFLRHSSPNFGAIPSSTNVGSHTY-NH2
modifications: disulfide 3-8; N-terminus assumed
SMILES: CC[C@H](C)[C@H](NC(=O)[C@H](C)NC(=O)CNC(=O)[C@H](Cc1ccccc1)NC(=O)[C@H](CC(N)=O)NC(=O)[C@@H]1CCCN1C(=O)[C@H](CO)NC(=O)[C@H](CO)NC(=O)[C@H](Cc1c[nH]cn1)NC(=O)[C@H](CCCNC(=N)N)NC(=O)[C@H](CC(C)C)NC(=O)[C@H](Cc1ccccc1)NC(=O)[C@H](CC(N)=O)NC(=O)[C@H](C)NC(=O)[C@H](CC(C)C)NC(=O)[C@H](CCCNC(=N)N)NC(=O)[C@H](CCC(N)=O)NC(=O)[C@@H](NC(=O)[C@H](C)NC(=O)[C@@H]1CSSC[C@H](NC(=O)[C@H](CCCNC(=N)N)NC(=O)[C@@H](N)CCCCNC(=O)CC[C@H](NC(=O)CCCCCCCCCCCCCCCCCCC(=O)O)C(=O)O)C(=O)N[C@@H](CC(N)=O)C(=O)N[C@@H]([C@@H](C)O)C(=O)N[C@@H](C)C(=O)N[C@@H]([C@@H](C)O)C(=O)N1)[C@@H](C)O)C(=O)N1CCC[C@H]1C(=O)N[C@@H](CO)C(=O)N[C@@H](CO)C(=O)N[C@H](C(=O)N[C@@H](CC(N)=O)C(=O)N[C@H](C(=O)NCC(=O)N[C@@H](CO)C(=O)N[C@@H](Cc1c[nH]cn1)C(=O)N[C@H](C(=O)N[C@@H](Cc1ccc(O)cc1)C(N)=O)[C@@H](C)O)C(C)C)[C@@H](C)O
notes: N-terminal extension by Lys at position -1; also called compound 44
B3: N^ε-[2-[2-[2-[[(4S)-4-carboxy-4-(19-carboxynonadecanoylamino)butanoyl]amino]ethoxy]ethoxy]acetyl]Lys[Arg1,Arg17,Pro21,Pro27,His35]-h-amylin (peptide)
peptide: K([AEEA-γGlu-C20 diacid])RCNTATCATQRLANFLRHSSPNFGAIPSSTNVGSHTY-NH2
modifications: disulfide 3-8; N-terminus assumed
SMILES: CC[C@H](C)[C@H](NC(=O)[C@H](C)NC(=O)CNC(=O)[C@H](Cc1ccccc1)NC(=O)[C@H](CC(N)=O)NC(=O)[C@@H]1CCCN1C(=O)[C@H](CO)NC(=O)[C@H](CO)NC(=O)[C@H](Cc1c[nH]cn1)NC(=O)[C@H](CCCNC(=N)N)NC(=O)[C@H](CC(C)C)NC(=O)[C@H](Cc1ccccc1)NC(=O)[C@H](CC(N)=O)NC(=O)[C@H](C)NC(=O)[C@H](CC(C)C)NC(=O)[C@H](CCCNC(=N)N)NC(=O)[C@H](CCC(N)=O)NC(=O)[C@@H](NC(=O)[C@H](C)NC(=O)[C@@H]1CSSC[C@H](NC(=O)[C@H](CCCNC(=N)N)NC(=O)[C@@H](N)CCCCNC(=O)COCCOCCNC(=O)CC[C@H](NC(=O)CCCCCCCCCCCCCCCCCCC(=O)O)C(=O)O)C(=O)N[C@@H](CC(N)=O)C(=O)N[C@@H]([C@@H](C)O)C(=O)N[C@@H](C)C(=O)N[C@@H]([C@@H](C)O)C(=O)N1)[C@@H](C)O)C(=O)N1CCC[C@H]1C(=O)N[C@@H](CO)C(=O)N[C@@H](CO)C(=O)N[C@H](C(=O)N[C@@H](CC(N)=O)C(=O)N[C@H](C(=O)NCC(=O)N[C@@H](CO)C(=O)N[C@@H](Cc1c[nH]cn1)C(=O)N[C@H](C(=O)N[C@@H](Cc1ccc(O)cc1)C(N)=O)[C@@H](C)O)C(C)C)[C@@H](C)O
notes: N-terminal extension by Lys at position -1; also called compound 45

What was measured:
[1] = target: T1, human amylin receptor (amylin 3(a) …); assay: SPA competition, displacement of 125I-rat amylin from membranes of BHK cells with human calcitonin receptor + RAMP-3 (Assay V)
Procedure: (§1) The binding assay was performed using scintillation proximity assay (SPA) beads (RPNQ0001) from PerkinElmer and cell membranes from the Amylin 3(a)/CRE-luc cells (as described in Assay (II)) were used. Membranes were prepared in the following way; the cells were rinsed with PBS and incubated with Versene for approximately 5 min before harvesting. The cells were flushed with PBS and the cell-suspension was centrifuged for 5 min at 1000 rpm. Cells were homogenized (ultrathurrax) in a buffer containing 20 mM Na-HEPES and 10 mM EDTA (pH 7.4) and centrifuged at 20.000 rpm for 15 min. The resulting pellet was resuspended, homogenized and centrifuged (20.000 rpm, 15 min) in a buffer containing 20 mM Na-HEPES and 0.1 mM EDTA (pH 7.4, buffer 2). The resulting pellet was resuspended in buffer 2 and protein concentration was measured (BCA protein Assay, Pierce). The homogenate was kept cold during the whole procedure. The membranes were kept at −80° C. until use. The assay was performed in a 384 well Optiplate (PerkinElmer) in a total volume of 40 ul. Membranes were mixed with SPA beads. Final concentration of membranes 35 ng/μL final and SPA beads was 0.05 mg/well. Test-compounds were dissolved in DMSO and further diluted in assay buffer (50 mM Hepes, pH 7.4, 1 mM CaCl2, 5 mM MgCl₂, 0.1% OA and 0.02% Tween20). […] The final mixture was incubated with shaking at 400 rpm for 120 min at 25° C. prior to centrifugation (1500 rpm, 10 min). Samples were analyzed on TopCounter™ (Packard). The IC₅₀ was calculated using (one site binding competition analysis) GraphPad Prism5 as a measure of receptor affinity.

[2] = target: T1, human amylin receptor (amylin 3(a) …); assay: as above; remark: listed apart in the source
Procedure: as §1

[3] = target: T2, human calcitonin receptor; assay: cell-based or functional assay
[4] = target: T1, human amylin receptor (amylin 3(a) …); assay: cell-based or functional assay
[5] = target: T2, human calcitonin receptor; assay: cell-based or functional assay; remark: listed apart in the source
[6] = target: T1, human amylin receptor (amylin 3(a) …); assay: cell-based or functional assay; remark: listed apart in the source

Row | IC50 [1] | IC50 [2] | hCTR funct. EC50 (pM) [3] | hAmylin-R funct. EC50 (pM) [4] | hCTR funct. EC50 (pM) [5] | hAmylin-R funct. EC50 (pM) [6] | Ratio hCT/hAmylin funct. [4] | Ratio hCT/hAmylin funct. [6] | Binder
1 | 0.377 nM | 0.377 nM | 2830 pM | 172 pM | 2830 pM | 172 pM |  |  | K([γGlu-γGlu-C20 diacid])CNTATCATQRLAEFLRHSSPNFGAIPSSTNVGPHTY-NH2 (disulfide 2-7 (inferred))
2 | 0.992 nM | 0.992 nM | 5580 pM | 425 pM | 5580 pM | 425 pM |  |  | B1
3 | 0.275 nM | 0.275 nM | 4750 pM | 198 pM | 4750 pM | 198 pM | 24 | 24 | B2
4 | 0.552 nM | 0.552 nM | 10100 pM | 594 pM | 10100 pM | 594 pM | 17 | 17 | B3
